Results taken from patent US20250270301A1 (GEN2 NEUROSCIENCE, published 2025).
Positions count from the first letter of the chain named. Read-outs that look alike come from different tables or passages of the source.

B1: #44_VH4VK4 humanised hIgG1 (antibody, V domains shown)
VH: QVQLQESGPGLVKPSETLSLTCTVSGIDLSSYAMAWVRQAPGKGLEWIGCIDRRGGTFYASWVKGRFTISKDTSKTTVDLQMTSLTAEDTATYFCARDSGAFDPWGQGTLVTVSS
VL: DIQMTQSPSSLSASVGDRVTITCQASQSVYDNYLAWYQQKPGQPPKLLIHAASNLASGVPSRFSGSGSGTEFTLTISSLQPDDFATYYCLGEFSCTTTDCNVFGGGTKVEIK
notes: also called VH4Vκ4; pVH/pVL
B2: #44_VH4VK4_H01/pVL (antibody, V domains shown)
VH: B1 VH with S99V, A101S, P104V
VL: B1 VL
notes: also called Clone VH4_H01; #44_VH4_H01
B3: #44_VH4VK4_H02/pVL (antibody, V domains shown)
VH: B1 VH with S99R, A101D, P104V
VL: B1 VL
notes: also called Clone VH4_H02; #44_VH4_H02
B4: #44_VH4VK4_H04/pVL (antibody, V domains shown)
VH: B1 VH with S99A, A101S, D103H
VL: B1 VL
notes: also called VH04/pVL; Clone VH4_H04
B5: Clone 1 (#66) rabbit monoclonal IgG (antibody, V domains shown)
VH: QSVEESGGRLVTPGTPLTLTCTVSGIDLSSNAMIWVRQAPGKGLEYIGNIGTHGTTYYASWAKGRFTISKTSTTVDLKMTSPTTEDTATYFCSRGDIWGPGTLVTVSL
VL: AQVLTQTESPVSAPLRGTVTINCQASQSVDDNNNLAWYQQKPGQPPKLLIYEASTLASGVSSRFKGSGSGTQFTLTISDVQCDDAATYYCLGEFSCSSADCVVFGGGTEVVVKG
notes: rabbit IgG; also called clone #66; B9
B6: Clone #66 (Clone 1) chimeric human IgG1 (antibody, V domains shown)
VH: B5 VH
VL: B5 VL
notes: rabbit VH and VK on human IgG1; also called #66 hIgG1
B7: #44 VH0VK0 chimeric human IgG1 (antibody, V domains shown)
VH: QSVEESGGRLVTPGTPLTLTCTVSGIDLSSYAMAWVRQAPGKGLEWIGCIDRRGGTFYASWVKGRFTISKTSTTVDLKMTSLTTEDTATYFCARDSGAFDPWGPGTLVTVSS
VL: QIVMTQTPSSVSAAVGGTVTIKCQASQSVYDNYLAWYQQKPGQPPKLLIHAASNLASRVPSRFKGSGSGTQFTLTISDVQCDDAATYYCLGEFSCTTTDCNVFGGGTEVVVK
notes: rabbit VH and VK on human IgG1; also called VH0Vκ0; Clone #44 hIgG1
B8: Clone 2 (#44) rabbit monoclonal IgG (antibody, V domains shown)
VH: B7 VH
VL: QIVMTQTPSSVSAAVGGTVTIKCQASQSVYDNYLAWYQQKPGQPPKLLIHAASNLASRVPSRFKGSGSGTQFTLTISDVQCDDAATYYCLGEFSCTTTDCNVFGGGTEVVVKG
notes: rabbit IgG; also called clone #44; D6

Key:
[1] = target: monomeric P301S 2N4R tau, pHrodo-labelled (human, UniProt P10636 1-758, pHrodo Red maleimide label); assay: cell-based or functional assay
Sequence of monomeric P301S 2N4R tau, pHrodo-labelled (P10636 other isoform, or with tags, fused parts or gaps P301S P301S): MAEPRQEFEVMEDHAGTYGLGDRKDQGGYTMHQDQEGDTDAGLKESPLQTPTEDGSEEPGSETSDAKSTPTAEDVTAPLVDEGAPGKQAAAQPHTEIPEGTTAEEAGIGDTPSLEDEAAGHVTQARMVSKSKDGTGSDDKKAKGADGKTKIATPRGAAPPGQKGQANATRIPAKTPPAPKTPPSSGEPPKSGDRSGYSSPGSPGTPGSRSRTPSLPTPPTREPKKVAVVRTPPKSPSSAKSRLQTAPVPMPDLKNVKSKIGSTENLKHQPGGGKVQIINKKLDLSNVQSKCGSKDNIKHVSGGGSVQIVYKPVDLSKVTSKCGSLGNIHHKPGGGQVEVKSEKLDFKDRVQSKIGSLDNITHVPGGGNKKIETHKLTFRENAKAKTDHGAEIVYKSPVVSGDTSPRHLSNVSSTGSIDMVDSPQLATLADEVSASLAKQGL

[2] = target: aggregated (oligomeric) P301S 2N4R tau, pHrodo-labelled (human, UniProt P10636 1-758, pHrodo Red maleimide label); assay: cell-based or functional assay
Sequence of aggregated (oligomeric) P301S 2N4R tau, pHrodo-labelled (P10636 other isoform, or with tags, fused parts or gaps P301S P301S): as above

[3] = target: T1, full length recombinant human 2N4R tau (human, UniProt P10636 1-758); assay: SPR SCK, IgG on Protein A, tau in flow
T1 construct: bought from rPeptide; pHrodo Red maleimide-labelled where it stands in uptake assays; also called tau1-441; full length tau
T1 sequence (P10636 other isoform, or with tags, fused parts or gaps limits assumed): as the sequence (P10636 other isoform, or with tags, fused parts or gaps P301S P301S) above, with S301P counted along it
Procedure, shortened: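 Antibodies were captured to ~50 RU on a Protein A chip in HBS-EP+ with 1 mg/mL BSA at 25 °C. Tau was injected by single-cycle kinetics at 1.25–10 nM (2-fold), with 60 s association and 200 s dissociation. Signals were referenced to a mock-immobilized cell.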

[4] = target: T1, full length recombinant human 2N4R tau; assay: SPR MCK, IgG on Protein A, tau in flow
Procedure: Slight variations in RMAX are considered likely to be due to differences in ligand capture and not reflective of significant variation in antibody binding characteristics.
(§1) 22.2 Assessment of antibody binding to tau (Biacore MCK analysis): Binding of anti-tau hIgG1 to full length recombinant 2N4R tau (Rpeptide; SEQ ID NO: 2) was assessed using the Biacore T200 (GE Healthcare, Chicago, IL, USA) running Biacore T200 Evaluation Software V2.0.1. hIgG1 were immobilised on a Protein A capture sensor chip in running buffer (HBS-EP+ buffer containing 1 mg/mL BSA) at 25° C., captured to ˜50 RU at 10 L/min. For multi-cycle kinetics experiments, recombinant 2N4R tau was flowed at concentrations ranging from 0.39 nM to 12.5 nM in running buffer at 40 μL/min, with an association time of 60 s and a dissociation time of 200 s. Curves were compared to a reference cell that was mock immobilized (no antibody present).

[5] = target: T1, full length recombinant human 2N4R tau; assay: SPR SCK, IgG on Protein A, tau in flow; remark: listed apart in the source
[6] = target: T1, full length recombinant human 2N4R tau; assay: SPR MCK, IgG on Protein A, tau in flow at 100 µL/min
Bovine serum albumin [7] = target: T2, Bovine serum albumin (bovine, UniProt P02769 25-607); assay: ELISA on 1% BSA, HEK supernatant, anti-human IgG-HRP, n=1
T2 construct: also called BSA
T2 sequence (P02769 25-607 limits assumed): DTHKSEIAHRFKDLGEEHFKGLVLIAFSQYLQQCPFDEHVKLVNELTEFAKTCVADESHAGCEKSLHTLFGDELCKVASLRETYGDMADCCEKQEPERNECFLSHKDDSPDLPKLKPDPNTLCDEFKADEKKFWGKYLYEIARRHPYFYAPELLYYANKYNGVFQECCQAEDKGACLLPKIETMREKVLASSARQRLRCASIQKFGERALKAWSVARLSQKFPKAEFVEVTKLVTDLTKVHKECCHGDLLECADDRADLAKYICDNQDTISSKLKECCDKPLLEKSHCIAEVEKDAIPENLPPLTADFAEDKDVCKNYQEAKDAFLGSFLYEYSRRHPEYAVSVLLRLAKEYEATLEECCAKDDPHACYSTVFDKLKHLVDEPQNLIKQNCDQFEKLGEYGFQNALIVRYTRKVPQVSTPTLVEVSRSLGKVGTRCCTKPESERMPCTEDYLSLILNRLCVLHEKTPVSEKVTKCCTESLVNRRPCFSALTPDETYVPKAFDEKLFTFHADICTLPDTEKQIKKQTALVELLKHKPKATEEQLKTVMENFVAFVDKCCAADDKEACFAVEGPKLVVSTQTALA
Procedure, shortened: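 Wells coated with antigen, blocked 1 h RT in 5% milk/TBS; HEK293 transient-transfection supernatants applied at 1:100 in 1% BSA/TBS for 1 h RT. Bound hIgG1 detected with anti-human IgG-HRP (1:2000), TMB 15 min, acid stop, OD450; single replicate.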

Bovine serum albumin [8] = target: T2, Bovine serum albumin; assay: as above; remark: listed apart in the source
[9] = target: T1, full length recombinant human 2N4R tau; assay: SPR MCK, IgG on Protein A, tau in flow at 100 µL/min; on the border of mass transport limitation
[10] = target: T1, full length recombinant human 2N4R tau; assay: ELISA, tau coated on the plate
Procedure: ELISA plates were coated with antigen (non-conjugated antigen peptide (Antigen peptide ([C]-[…]-amide (SEQ ID NO: 13)) or full length 2N4R tau (SEQ ID NO: 2), 100 ng/well; or 1% BSA in 1×TBS) in 1× carbonate-bicarbonate buffer for 1 hour at 37° C. Antigen was removed from wells and the plates were then blocked for 1 hour at RT with 5% dried milk in 1×TBS. Blocking solution was removed, HEK293F cell supernatant (10 μg/mL, to 0.0001 μg/mL in 1% BSA/1×TBS) was added to relevant wells, and plates were incubated for 1 hour at RT with gentle shaking. Plates were then washed four times with TBS/0.1% Tween (TBST). Anti-rabbit IgG-HRP antibody (Sigma, St Louis, MO, USA), diluted 1:5000 in 5% milk/TBS, was added to each well and plates were incubated for 1 hour at RT with gentle shaking before being washed four times with TBST. 3,3′,5,5′-tetramethylbenzidine (TMB) ELISA solution was added to each well and plates were incubated for 15 mins at RT. An equal volume of 1 M sulfuric acid was added to each well and OD was measured at 450 nm.

[11] = target: T1, full length recombinant human 2N4R tau; assay: SPR MCK, IgG on Protein A, tau in flow; remark: listed apart in the source
Procedure: Anti-tau IgGs bind to full length 2N4R tau (SEQ ID NO: 2) with high affinity. […] It is predicted that the binding affinity of these antibodies would be equivalent to any tau species containing the epitope corresponding to amino acids 369-381 of 2N4R tau (SEQ ID NO: 1), if this sequence is accessible.
as §1, with “19.2” for “22.2”, “tau:” for “tau (Biacore MCK analysis):”, “μL/min.” for “L/min.”, “experiments (clone #66), recombinant 2N4R tau was flowed at concentrations ranging from 0.39 nM to 50 nM in running buffer at 40 μL/min, with an association time of 150 s and a dissociation time of 250 s. Optimised conditions for multiple-cycle kinetics experiments were applied to clone #44:” for “experiments,”, “(2-fold dilutions)” for “in running buffer at 40 μL/min,”, “s (cropped to 65 s to improve analysis fit).” for “s.”

Row | Binder | inhibition of monomeric tau uptake into human astrocytes [1] [%] | inhibition of aggregated tau uptake into human astrocytes [2] [%] | Fold change (KD, to pVH/pVL) [5] | Kd [5] [nM] | koff [5] [s⁻¹] | kon [5] [M⁻¹ s⁻¹] | Fold improvement (KD, to pVH/pVL) [6] | Kd [6] [nM] | koff [6] [s⁻¹] | kon [6] [M⁻¹ s⁻¹] | inhibition of monomeric tau uptake into human iPSC-derived neurons [1] [%] | inhibition of aggregated tau uptake into human iPSC-derived neurons [2] [%] | binding result (Bovine serum albumin [8]) | also measured
1 | B1 | 52.3 | 41.3 | 1 | 6.58 | 0.012 | 1.82e+06 | 1 | 7.76 | 0.0147 | 1.89e+06 | – | – | – | increase of monomeric tau uptake into human iPSC-derived microglia [1]: 59.4%; inhibition of monomeric tau uptake into human iPSC-derived astrocytes [1]: 94.1%; increase of aggregated tau uptake into human iPSC-derived microglia [2]: 115%; inhibition of aggregated tau uptake into human iPSC-derived astrocytes [2]: 61.9%; Kd [3]: 8.12 nM; Relative KD (to VH0VK0) [3]: 2.12; koff [3]: 0.0294 s⁻¹; kon [3]: 3.61e+06 M⁻¹ s⁻¹; Kd [4]: 5.84 nM; Relative KD (to VH0VK0) [4]: 1.8; koff [4]: 0.0316 s⁻¹; kon [4]: 5.41e+06 M⁻¹ s⁻¹; binding result (Bovine serum albumin [7]): no binding (tested: supernatant 1:100)
2 | B2 | 67.5 | 38.6 | 2.43 | 2.71 | 0.00805 | 2.97e+06 | 1.9 | 4.01 | 0.00957 | 2.39e+06 | 89.2 | 61.1 | no binding (tested: 30 ng/ml (legend 1:100)) | –
3 | B3 | 64.7 | 43.3 | 5.62 | 1.17 | 0.00324 | 2.78e+06 | 5.1 | 1.52 | 0.0037 | 2.43e+06 | 84.1 | 59.2 | no binding (tested: 30 ng/ml (legend 1:100)) | –
4 | B4 | 35.6 | 32.6 | 11.1 | 0.593 | 0.0017 | 2.86e+06 | 10.5 | – | 0.00185 | 2.51e+06 | 81.8 | 65.5 | no binding (tested: 30 ng/ml (legend 1:100)) | Kd [9]: 0.736 nM
5 | B5 | – | – | – | – | – | – | – | – | – | – | – | – | – | EC50 [10]: 0.82 nM
6 | B6 | – | – | – | – | – | – | – | – | – | – | – | – | – | Kd [11]: 2.39 nM; koff [11]: 0.00478 s⁻¹; kon [11]: 2.01e+06 M⁻¹ s⁻¹
7 | B7 | – | – | – | – | – | – | – | – | – | – | – | – | – | Kd [11]: 4.68 nM; koff [11]: 0.00968 s⁻¹; kon [11]: 2.07e+06 M⁻¹ s⁻¹; Kd [3]: 3.83 nM; Relative KD (to VH0VK0) [3]: 1; koff [3]: 0.0126 s⁻¹; kon [3]: 3.28e+06 M⁻¹ s⁻¹; Kd [4]: 3.25 nM; Relative KD (to VH0VK0) [4]: 1; koff [4]: 0.0107 s⁻¹; kon [4]: 3.3e+06 M⁻¹ s⁻¹
8 | B8 | – | – | – | – | – | – | – | – | – | – | – | – | – | EC50 [10]: 1.05 nM
